Patent publication US20240425575A1 (SOTER BIOPHARMA PTE, published 2024)
Positions count from the first letter of the chain named.

B1: B4-C11 (VHH)
VHH: QVQLVESGGGLVQAGGSLRLSCAASGSTFSNVVAGWYRQAPGKQRELVAGISNIGDTRYADSVKGRFTISRDNAKKAVYLQMNSLKPEDTAVYYCYAKYWARDYWGQGTQVTVSS
notes: Tested as E. coli TG1 culture supernatant (phagemid pComb3XSS); also called anti-ANG2 heavy-chain single-domain antibody B4-C11
B2: B1-H9 (VHH)
VHH: B1 VHH with Q1E, G10D, N31S, V32T, V33I, A77T
notes: Tested as E. coli TG1 culture supernatant (phagemid pComb3XSS); also called anti-ANG2 heavy-chain single-domain antibody B1-H9
B3: B3-H7 (VHH)
VHH: B1 VHH with Q1E, L4V, F29A, S30I, V32S, A77T, P87S
notes: Tested as E. coli TG1 culture supernatant (phagemid pComb3XSS); also called anti-ANG2 heavy-chain single-domain antibody B3-H7
B4: B3-C11 (VHH)
VHH: EVQLVESGGGLVQAGGSLRLSCFVSGSTFSASLMGWYRQAPGKERELVAGISNIGNTVYADSAKGRFTISRDGAKNTVHLQMNALKPEDTAVYYCYATVPRAAWGQGTQVTVSS
notes: Tested as E. coli TG1 culture supernatant (phagemid pComb3XSS); also called anti-ANG2 heavy-chain single-domain antibody B3-C11
B5: B2-A6 (VHH)
VHH: B4 VHH with E1Q, V2L
notes: Tested as E. coli TG1 culture supernatant (phagemid pComb3XSS); also called anti-ANG2 heavy-chain single-domain antibody B2-A6
B6: B4-D3 (VHH)
VHH: QLQLVESGGGLVQPGGSLRLSCVASGASGISFSNRGMAWYRQAPGKQRELVAAIDSAGSPAYAGSVKGRFTISRDNAKNTVFLQMNSLKPEDTAVYYCNQPRFNLWGLGTQVTVSS
notes: Tested as E. coli TG1 culture supernatant; also called anti-ANG2 heavy-chain single-domain antibody B4-D3
B7: B2-E2 (VHH)
VHH: EVQLVESGGGLVQPGESLRLSCVASGFPSGFTFSDYQMYWYRQAPGKERELVAIISNDGLRKTYADSVKGRFTISRDNAKNTMFLQMNSLKPEDTAVYVCNVRRANRDDWGQGTQVTVSS
notes: Tested as E. coli TG1 culture supernatant (phagemid pComb3XSS); also called anti-ANG2 heavy-chain single-domain antibody B2-E2
B8: B1-G3 (VHH)
VHH: EVQVVESGGGLVQPGGSLRLSCVASMPSGISFSNRGMAWYRQAPGKQRELVAAIDSAGSTRYQDSVKGRFTISRDNAKNTVFLQMNSLKPEDTAVYYCNQPAFKAWGQGTQVTVSS
notes: Tested as E. coli TG1 culture supernatant (phagemid pComb3XSS); also called anti-ANG2 heavy-chain single-domain antibody B1-G3
B9: B1-G8 (VHH)
VHH: QVQLVESGGGLVQTGDSLRLSCVAPGISFSNRGMAWYRQAPGKQRELVAAIDSAGSQRYAGSVKDRFTISRDNAKNTVFLQMNSLKPEDTAVYYCNQPRFNLWGQGTQVTVSS
notes: Tested as E. coli TG1 culture supernatant (phagemid pComb3XSS); also called anti-ANG2 heavy-chain single-domain antibody B1-G8
B10: B2-F10 (VHH)
VHH: QVQLVESGGGLVQAGGSLRLSCGASGSAVSITLMAWYRQAPGKQRELVAGISNIGDTNYVDSVKDRFTISRINAKNAMYLQMNSLKPEDTAVYYCFAQDWGGHHYWGQGTQVTVSS
notes: Tested as E. coli TG1 culture supernatant (phagemid pComb3XSS); also called anti-ANG2 heavy-chain single-domain antibody B2-F10

molecular target: T1, recombinant human ANG2 protein corresponding to Lys275-Phe496 of human ANG2 (human, UniProt O15123 275-496); experiment: ELISA, hANG2 coated, E. coli supernatant, anti-VHH-HRP
T1 construct: also called hANG2
T1 sequence: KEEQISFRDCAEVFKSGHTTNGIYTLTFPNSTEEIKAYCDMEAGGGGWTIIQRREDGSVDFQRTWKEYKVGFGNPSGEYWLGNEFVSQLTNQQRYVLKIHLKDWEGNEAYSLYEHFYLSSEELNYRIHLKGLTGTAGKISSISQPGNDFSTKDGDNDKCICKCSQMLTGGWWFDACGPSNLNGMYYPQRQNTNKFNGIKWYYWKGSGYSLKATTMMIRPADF
Method: Single colonies of TG1 host strains of the obtained ten strains of heavy-chain single-domain antibodies were selected, inoculated and cultured overnight. On the next day, the overnight strains were transferred, amplified, induced by 0.5 mM IPTG and cultured in a shaker overnight at 37° C. On the next day, centrifugation was performed to collect supernatant for detection.
An ELISA plate was separately coated with an hANG2 protein solution and BSA in […] and placed overnight at 4° C. Supernatant was discarded, and 300 μL blocking solution (PBS containing 3% BSA) was added to each well and blocked for 2 h at 37° C. Supernatant collected after centrifugation was added to wells of the ELISA plate in 200 μL per well and subjected to standing incubation for 2 h at room temperature, and supernatant was discarded. Washing was performed with PBST (PBS contained 0.1% Tween 20) in 200 μL/well three times. Diluted HRP-labeled anti-VHH secondary antibodies (Genscript, A01861) were added in a volume of 100 μL/well and incubated for 1 h at room temperature, wherein the secondary antibodies were used after dilution according to 1:10000 with a diluent of PBS containing 1% BSA. Washing was performed with PBST in 200 μL/well five times. A TMB color developing solution (BD, 55214) was added in 100 μL/well, and color developing was performed for 8 min at 37° C.2M HCl stopping solution was added in 100 μL/well. After the stopping solution was added, values at 450 nm were read with a microplate reader within 30 minutes.

Row | Binder | OD Value Obtained after Binding to hANG2 [OD 450 nm]
1 | B1 | 1.58
2 | B2 | 1.5
3 | B3 | 1.82
4 | B4 | 1.63
5 | B5 | 2.39
6 | B6 | 1.68
7 | B7 | 1.96
8 | B8 | 1.57
9 | B9 | 2.02
10 | B10 | 2.06
